The target of assay [1] is C4b (Complement Tech) (UniProt P0C0L4). Briefly: BLI (GatorPrime), ratio of KD to that of rhCR1 for C4b.
Assay [2] shares this target. Briefly: BLI (GatorPrime), His-tagged protein on Ni-NTA probe, ligand in 7-point dilution series.
For assay [3] the target is unchanged. Put plainly: SPR (Biacore 8K), His-tagged fusion protein captured by anti-His on CM5, C4b analyte 62.5-2000 nM, steady state affinity.
For assay [4] the target is unchanged. Put plainly: SPR (Biacore 8K), His-tagged receptor captured by anti-His on CM5, C4b analyte 31.25-2000 nM, steady state affinity.
The target of assay [5] is T1, iC3b (Complement Tech) (UniProt P01024 23-667; P01024 749-1303; P01024 1321-1663, limits assumed).
T1 construct: iC3b is a multi-chain fragment of C3
T1 sequence (P01024 23-667 limits assumed, chain 1 of 3): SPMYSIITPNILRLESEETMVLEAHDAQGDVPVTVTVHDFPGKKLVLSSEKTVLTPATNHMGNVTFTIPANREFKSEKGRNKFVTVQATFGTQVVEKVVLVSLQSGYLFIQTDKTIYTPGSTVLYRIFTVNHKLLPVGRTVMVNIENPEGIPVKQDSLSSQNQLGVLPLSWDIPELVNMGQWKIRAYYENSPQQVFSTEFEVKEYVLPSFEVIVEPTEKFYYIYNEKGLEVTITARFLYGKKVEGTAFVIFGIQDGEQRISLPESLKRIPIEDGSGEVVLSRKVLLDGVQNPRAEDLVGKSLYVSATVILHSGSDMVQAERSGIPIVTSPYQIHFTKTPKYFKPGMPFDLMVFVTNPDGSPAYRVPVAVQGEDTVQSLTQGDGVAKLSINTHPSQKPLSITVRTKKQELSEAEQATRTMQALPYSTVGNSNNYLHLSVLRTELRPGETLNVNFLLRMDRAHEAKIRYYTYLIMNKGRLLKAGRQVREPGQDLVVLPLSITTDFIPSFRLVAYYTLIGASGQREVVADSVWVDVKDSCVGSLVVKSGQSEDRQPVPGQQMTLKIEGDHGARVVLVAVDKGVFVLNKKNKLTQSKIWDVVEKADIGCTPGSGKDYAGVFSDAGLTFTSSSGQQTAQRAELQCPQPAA
T1 sequence (P01024 749-1303 limits assumed, chain 2 of 3): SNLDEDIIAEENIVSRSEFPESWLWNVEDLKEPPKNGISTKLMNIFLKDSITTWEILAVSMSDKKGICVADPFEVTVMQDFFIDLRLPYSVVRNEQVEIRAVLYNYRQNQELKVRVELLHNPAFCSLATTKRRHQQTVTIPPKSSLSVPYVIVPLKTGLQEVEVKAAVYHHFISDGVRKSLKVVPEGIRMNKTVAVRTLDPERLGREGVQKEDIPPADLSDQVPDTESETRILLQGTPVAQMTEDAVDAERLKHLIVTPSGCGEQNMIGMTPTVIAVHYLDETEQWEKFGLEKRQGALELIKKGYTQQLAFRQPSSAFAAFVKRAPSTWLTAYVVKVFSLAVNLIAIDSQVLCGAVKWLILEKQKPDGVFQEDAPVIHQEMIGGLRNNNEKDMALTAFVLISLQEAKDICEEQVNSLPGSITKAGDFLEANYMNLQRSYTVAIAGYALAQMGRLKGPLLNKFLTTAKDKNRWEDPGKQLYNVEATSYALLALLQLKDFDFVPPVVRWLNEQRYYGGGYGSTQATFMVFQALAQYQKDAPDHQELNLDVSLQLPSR
T1 sequence (P01024 1321-1663 limits assumed, chain 3 of 3): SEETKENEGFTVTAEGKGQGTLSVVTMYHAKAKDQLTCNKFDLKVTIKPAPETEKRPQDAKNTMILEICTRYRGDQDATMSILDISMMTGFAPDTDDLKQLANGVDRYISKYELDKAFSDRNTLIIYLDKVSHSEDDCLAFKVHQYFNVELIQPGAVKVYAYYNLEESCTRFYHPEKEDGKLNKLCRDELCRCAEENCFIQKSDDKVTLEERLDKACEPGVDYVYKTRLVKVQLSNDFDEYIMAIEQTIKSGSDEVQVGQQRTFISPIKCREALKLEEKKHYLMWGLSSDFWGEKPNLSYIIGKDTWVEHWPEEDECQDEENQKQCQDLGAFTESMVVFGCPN
Put plainly: BLI (GatorPrime), His-tagged protein on Ni-NTA probe, ligand in 7-point dilution series. On the procedure: The binding kinetics of CR2-CR1 fusion proteins, human CR1, and human CR2 to their respective ligands were determined using biolayer interferometry (BLI) with a GatorPrime instrument (Gator Bio). Recombinant His-tagged human CR1 (R&D Systems), human CR2 (R&D Systems), or CR2-CR1 fusion proteins (GenScript) were immobilized onto Ni-NTA probes, and the response signals from the protein-loaded probes binding to C3d, iC3b, C3b, or C4b (Complement Tech) in a 7-point dilution series were measured for a 300 second association step, followed by a 300 second dissociation step in assay buffer. To reduce assay background/noise due to non-specific complement protein binding, a double reference was applied using a 0 nM ligand condition (Sample or Reference Probe Blank) and a series of Ni-NTA probes not loaded with protein (Reference Probe) according to the following equation: Sample Response=(Sample Signal−Reference Probe Signal)−(Sample Blank Signal−Reference Probe Blank Signal). The binding affinity constant, KD, and association/dissociation rate constants, kₒₙ/koff, for all binding interactions were calculated using the GatorOne software (Gator Bio).

Assay [6] has as its target T1, iC3b (Complement Tech). Briefly: SPR (Biacore 8K), His-tagged receptor captured by anti-His on CM5, iC3b analyte 19.5-1250 nM, steady state affinity. Here is the method:
The binding of recombinant human CR1, recombinant human CR2, and recombinant CR2CR1 #1 (SEQ ID NO: 22), and recombinant CR2CR1 #7 (SEQ ID NO: 12) protein to their respective ligands C3b, C4b, iC3b, and/or C3d was analyzed using a Biacore 8K SPR system (Cytiva). Histidine-tagged complement receptors and fusion proteins were immobilized onto Series S Sensor Chip CM5 using a His Antibody Capture Kit, with capture levels of 60-470 RU. C3b, C4b, iC3b, and C3d were prepared in 1×HBS-EP buffer (10 mM HEPES, 150 mM NaCl, 3 mM EDTA, and 0.05% v/v Surfactant P20), pH 7.4, at concentrations ranging from 3-16000 nM, and the analytes were injected at a flow rate of 30 μL/min. Binding at 25° C. was monitored for 150 seconds, followed by a dissociation phase of 300 seconds. Chip sensors were regenerated for 60 seconds with 10 mM glycine-HCl buffer, pH 1.5. The data were processed and analyzed with Biacore Insight Evaluation Software; a 1:1 binding model (C3b analyte) or steady state affinity (C4b, iC3b, C3d analytes) was used to calculate the apparent KD value and other kinetic parameters.

Usually Kd stands for the concentration at which binding is half-saturated. Read a high Kd as a looser complex. One may read the koff as a measure of how fast the partners let go of each other. A low value points to slow dissociation. By kon is commonly meant the second-order rate constant of association. A low value points to slower complex formation.

C4b (Complement Tech), sequence (P0C0L4 20-1744): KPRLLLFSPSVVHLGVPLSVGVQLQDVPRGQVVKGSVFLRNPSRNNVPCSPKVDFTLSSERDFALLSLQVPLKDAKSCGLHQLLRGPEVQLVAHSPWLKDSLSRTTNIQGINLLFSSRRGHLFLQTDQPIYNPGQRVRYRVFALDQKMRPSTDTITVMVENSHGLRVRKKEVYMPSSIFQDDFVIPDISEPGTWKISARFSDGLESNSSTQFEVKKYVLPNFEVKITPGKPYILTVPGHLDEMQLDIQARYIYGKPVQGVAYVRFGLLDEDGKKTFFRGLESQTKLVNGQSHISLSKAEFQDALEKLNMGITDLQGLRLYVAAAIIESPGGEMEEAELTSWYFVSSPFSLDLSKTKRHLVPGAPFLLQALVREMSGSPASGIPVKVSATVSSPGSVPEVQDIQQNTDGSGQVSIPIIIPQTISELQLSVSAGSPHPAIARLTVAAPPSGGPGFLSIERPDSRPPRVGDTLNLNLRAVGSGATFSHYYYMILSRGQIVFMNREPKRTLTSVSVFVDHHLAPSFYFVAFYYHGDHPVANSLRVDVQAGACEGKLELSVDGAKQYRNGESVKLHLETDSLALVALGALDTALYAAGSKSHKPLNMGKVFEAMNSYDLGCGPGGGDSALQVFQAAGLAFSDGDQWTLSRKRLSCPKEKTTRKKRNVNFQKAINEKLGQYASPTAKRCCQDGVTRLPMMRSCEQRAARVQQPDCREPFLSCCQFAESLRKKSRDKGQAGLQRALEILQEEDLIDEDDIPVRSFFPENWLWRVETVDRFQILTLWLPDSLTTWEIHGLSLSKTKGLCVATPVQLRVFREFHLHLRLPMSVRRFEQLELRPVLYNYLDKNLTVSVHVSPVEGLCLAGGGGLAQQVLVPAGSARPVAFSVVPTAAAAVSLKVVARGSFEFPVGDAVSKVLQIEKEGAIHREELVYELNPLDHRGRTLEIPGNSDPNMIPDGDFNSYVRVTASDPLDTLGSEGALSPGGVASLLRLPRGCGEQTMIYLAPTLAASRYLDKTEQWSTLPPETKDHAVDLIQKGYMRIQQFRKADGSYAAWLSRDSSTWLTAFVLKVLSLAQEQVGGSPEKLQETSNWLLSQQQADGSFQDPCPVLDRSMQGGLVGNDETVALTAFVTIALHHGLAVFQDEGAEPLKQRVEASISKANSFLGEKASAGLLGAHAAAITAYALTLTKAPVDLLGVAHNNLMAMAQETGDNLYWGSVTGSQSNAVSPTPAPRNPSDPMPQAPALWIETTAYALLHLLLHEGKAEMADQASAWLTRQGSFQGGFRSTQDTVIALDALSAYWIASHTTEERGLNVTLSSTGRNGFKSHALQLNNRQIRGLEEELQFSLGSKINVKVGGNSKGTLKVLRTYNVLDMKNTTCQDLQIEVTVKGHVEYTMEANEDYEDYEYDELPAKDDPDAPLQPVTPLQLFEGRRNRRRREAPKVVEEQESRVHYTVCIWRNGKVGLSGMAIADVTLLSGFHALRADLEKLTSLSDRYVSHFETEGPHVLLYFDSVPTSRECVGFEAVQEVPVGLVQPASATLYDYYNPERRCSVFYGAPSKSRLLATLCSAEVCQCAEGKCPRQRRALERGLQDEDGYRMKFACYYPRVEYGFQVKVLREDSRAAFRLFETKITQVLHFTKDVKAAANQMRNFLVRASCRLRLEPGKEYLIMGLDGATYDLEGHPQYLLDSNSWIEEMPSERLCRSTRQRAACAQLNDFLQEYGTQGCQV

As for “recombinant CR2CR1 #7 (CR2-CR1 fusion protein, CR2 SCR1-4 fused to CR1 SCR1-4, 7-11, 14-17), His-tagged”, the KD vs. hCR1 KD (X (fold of hCR1 KD)) in the assay with C4b (Complement Tech) [1] stood at 0.8. In the assay with C4b (Complement Tech) [2], the Kd was 10.5 nM, the koff is 0.000663 s⁻¹ and the kon came to 63300 M⁻¹ s⁻¹.

Take “recombinant CR2CR1 #1 (CR2-CR1 fusion protein, CR2 SCR1-4 fused to CR1 SCR1-10), His-tagged”: in the assay with C4b (Complement Tech) [3], the Kd came to 21100 nM. In the assay with C4b (Complement Tech) [1], the KD vs. hCR1 KD (X (fold of hCR1 KD)) amounted to 0.94. In the assay with C4b (Complement Tech) [2], this molecule came in with a Kd of 12.4 nM, a koff of 0.000694 s⁻¹ and a kon of 56000 M⁻¹ s⁻¹.

“Recombinant His-tagged human CR1 (R&D Systems) (from UniProt P17927 42-1971) (receptor)” returned a Kd with C4b (Complement Tech) [4] of 3010 nM. Besides, in the assay with C4b (Complement Tech) [2], the Kd is 13.2 nM, the koff was 0.000586 s⁻¹ and the kon was found to be 44300 M⁻¹ s⁻¹.

B1: Recombinant His-tagged human CR2 (R&D Systems) (receptor, UniProt P20023 21-971, looked up)
chain: ISCGSPPPILNGRISYYSTPIAVGTVIRYSCSGTFRLIGEKSLLCITKDKVDGTWDKPAPKCEYFNKYSSCPEPIVPGGYKIRGSTPYRHGDSVTFACKTNFSMNGNKSVWCQANNMWGPTRLPTCVSVFPLECPALPMIHNGHHTSENVGSIAPGLSVTYSCESGYLLVGEKIINCLSSGKWSAVPPTCEEARCKSLGRFPNGKVKEPPILRVGVTANFFCDEGYRLQGPPSSRCVIAGQGVAWTKMPVCEEIFCPSPPPILNGRHIGNSLANVSYGSIVTYTCDPDPEEGVNFILIGESTLRCTVDSQKTGTWSGPAPRCELSTSAVQCPHPQILRGRMVSGQKDRYTYNDTVIFACMFGFTLKGSKQIRCNAQGTWEPSAPVCEKECQAPPNILNGQKEDRHMVRFDPGTSIKYSCNPGYVLVGEESIQCTSEGVWTPPVPQCKVAACEATGRQLLTKPQHQFVRPDVNSSCGEGYKLSGSVYQECQGTIPWFMEIRLCKEITCPPPPVIYNGAHTGSSLEDFPYGTTVTYTCNPGPERGVEFSLIGESTIRCTSNDQERGTWSGPAPLCKLSLLAVQCSHVHIANGYKISGKEAPYFYNDTVTFKCYSGFTLKGSSQIRCKADNTWDPEIPVCEKETCQHVRQSLQELPAGSRVELVNTSCQDGYQLTGHAYQMCQDAENGIWFKKIPLCKVIHCHPPPVIVNGKHTGMMAENFLYGNEVSYECDQGFYLLGEKKLQCRSDSKGHGSWSGPSPQCLRSPPVTRCPNPEVKHGYKLNKTHSAYSHNDIVYVDCNPGFIMNGSRVIRCHTDNTWVPGVPTCIKKAFIGCPPPPKTPNGNHTGGNIARFSPGMSILYSCDQGYLLVGEALLLCTHEGTWSQPAPHCKEVNCSSPADMDGIQKGLEPRKMYQYGAVVTLECEDGYMLEGSPQSQCQSDHQWNPPLAVCRSR
notes: Bought protein; also called rhCR2; hCR2; not shown: His tag
For B1, in the assay with iC3b (Complement Tech) [5], the Kd stood at 6.51 nM, the koff was determined as 0.000965 s⁻¹ and the kon came to 148000 M⁻¹ s⁻¹. In addition, in the assay with iC3b (Complement Tech) [6], the Kd is 439 nM.

The values above are taken from US20260152543A1 (KRIYA THERAPEUTICS, published 2026).
